# B1: Ruminococcus gnavus β-D-glucuronidase (enzyme)
# chain: MLEYSELYPIQNEYRMMQSLDGMWKFQFDPEEIGKKSGWENGLPAPVSMPVPSSFADFFTDHKERDYCGDFWYETEFYLPAEWRNKKIWLRFGSITHRGTVYCNGMEITSHEGGFLPVLADISTVAKPGQVNQVVVKINNELNETSLPCGATKILNNGRKLAKPYFDFFNYSGLQRSVWVIALPEESVKDYSVDYELCGTDALVKYEVVTTGEHPVIVRLLDAEGELVAETEGKEGILQVANARLWEVRNAYLYQIVILITDGNGVLDEYREKIGIRTVRIEGTKILLNDRPVYLKGFGKHEDFPILGRGFHWGIVKRDFECLKWTNANCFRTSHYPYAEEWYQFADEEGFLIIDEVPAVGMMRSTRNFVAAGSGNYTYFFEALTVPELLKSHIADTEEMITRDKNHPSVIAWSLFNEPETITDYAYEYFKEVFAAAETYDFQSRPMTGAFEKNSKPELCKCYPLCDFICLNRYYGWYISGGPEIEEAEELFRDEMDRWKAKELNVPFVFTEFGTDTMAGLHKLPSIMWSEEYQKEYLEMNFRVFDSYEFVQGELAWNFADFQTTEGIMRVDGNHKGVFTRDRQPKAAAVVFKDRWEKKNELF
# B2: Bacteroides fragilis β-D-glucuronidase (enzyme)
# chain: RQDILLNNNWNFRFSHQVQGDTRRVDLPHTWNAQDALAGKIDYKRGIGNYEKALYIRPEWKGKRLFLRFDGVNSIADVFINRKHIGEHRGGYGAFIFEITDLVKYGEKNSVLVRANNGEQLDIMPLVGDFNFYGGIYRDVHLLITDETCISPLDYASPGVYLVQEVVSPQEAKVCAKVNLSNRAADGTAELQVLVTDGTKVICKESRNVSLKQGADILEQLPLLIQKPRLWNGCEDPFMYQVSISLHKDGKQIDSVTQPLGLRYYHTDPDKGFFLNGKHLPLHGVCRHQDRAEVGNALRPQHHEEDVALMREMGVNAIRLAHYPQATYMYDLMDKHGIVTWAEIPFVGPGGYADKGFVDQASFRENGKQQLIELIRQHYNHPSICFWGLFNELKEVGDNPVEYVKELNALAKQEDPTRPTTSASNQDGNLNFITENIAWNRYDGWYGSTPKTLATFLDRTHKKHPELRIGISEYGAGASIYHQQDSLKQPSASGWWHPENWQTYYHMENWKIIAERPFVWGTFVWNMFDFGAAHRTEGDRPGINDKGLVTFDRKVRKDAFYFYKANWNKQEPMIYLAEKRCRLRYQPEQTFMAFTTAPEAELFVNGVSCGKQKADTYSTVVWKNVKLTSGENIIRVTTPGKKPLTDEVTVEYKEDR
# notes: β-D-glucuronidase (GUS) of Bacteroides fragilis, codon-optimized gene bought from GenScript, in pET15b; apo structure PDB 3CMG named as search model; Crystallised and soaked with UIFG; Its PDB code is one of 5Z18, 5Z19, 5Z1A, 5Z1B; also called BfGUS
# How the values were obtained:
# [1] = molecular target: Bifidobacterium dentium β-D-glucuronidase, catalytically inactive mutant E479A (Bifidobacterium dentium); assay: crystal structure; crystals of the purified GUS alone, soaked with UIFG (RgGUS, BfGUS) or with compound 10 (BifdGUS E479A); oligomer as seen in the crystal structures
# [2] = molecular target: the molecule itself; assay: as above
Molecule,stoichiometry N [1],stoichiometry N [2]
"Bifidobacterium dentium β-D-glucuronidase, catalytically inactive mutant E479A (enzyme)",4,
B1,,4
B2,,4

# Source: paper PMC6219552, “β-Glucuronidases of opportunistic bacteria are the major contributors to xenobiotic-induced toxicity in the gut” (Scientific Reports, 2018)
